Source: patent US20070128678A1

Columns and labels:
[1] = molecular target: PknB1-279 (His-tagged catalytic kinase domain of Mycobacterium tuberculosis Ser/Thr protein kinase PknB, aa 1-279) (Mycobacterium tuberculosis) (UniProt P9WI81); assay: cell-based or functional assay
[2] = molecular target: T1, PknB1-279 (His-tagged catalytic kinase domain of Mycobacterium tuberculosis Ser/Thr protein kinase PknB, aa 1-279), P9WI81
T1 chain: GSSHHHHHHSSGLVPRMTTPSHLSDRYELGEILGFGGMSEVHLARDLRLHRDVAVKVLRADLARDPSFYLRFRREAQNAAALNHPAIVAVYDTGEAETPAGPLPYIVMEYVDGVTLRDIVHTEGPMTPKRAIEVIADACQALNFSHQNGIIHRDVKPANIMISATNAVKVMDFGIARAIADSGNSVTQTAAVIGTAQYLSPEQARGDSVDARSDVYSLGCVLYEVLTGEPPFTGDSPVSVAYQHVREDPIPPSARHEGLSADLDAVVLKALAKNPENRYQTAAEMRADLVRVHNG

Row | Molecule | MALDI-TOF mass of PknB1-279 after phosphatase treatment (phosphate groups removed) (phosphate groups) [1] | dephosphorylation of autophosphorylated [33P]-PknB1-279 by PstP (SDS-PAGE, autoradiography, band shift) [2] | kinase activity of PknB on MBP with thio-γATP after preincubation with PstP [2]
1 | PstP1-240 (His-tagged catalytic domain of Mycobacterium tuberculosis Ser/Thr protein phosphatase PstP, aa 1-240) (from UniProt P9WHW4 1-240) (enzyme) | 3 | – | –
2 | PstP1-240 (His-tagged catalytic domain of Mycobacterium tuberculosis Ser/Thr protein phosphatase PstP, aa 1-240) (protein) MARVTLVLRYAARSDRGLVRANNEDSVYAGARLLALADGMGGHAAGEVASQLVIAALAHLDDDEPGGDLLAKLDAAVRAGNSAIAAQVEMEPDLEGMGTTLTAILFAGNRLGLVHIGDSRGYLLRDGELTQITKDDTFVQTLVDEGRITPEEAHSHPQRSLIMRALTGHEVEPTLTMREARAGDRYLLCSDGLSDPVSDETILEALQIPEVAESAHRLIELALRGGGPDNVTVVVADVVD | – | PstP is capable of dephosphorylating PknB | prior dephosphorylation of PknB by PstP inhibits kinase activity on MBP
